Experimental data reported in patent US20200123233A1.
Several values for one entry are separate records, joined by “and”; a condition that tells them apart may be missing. Equal values may be shown once.

B1: LG212B2 (VHH)
VHH: EMQLVESGGGLVQAGDSLRLSCAASGDTFSWYVMAWFRQAPGKEREFVTWINRSGASTYYADSVKGRFTIFRDNDKNTVYLQMNSLKPEDTAVYYCAAGGFYGLRTTEERYDTWGQGTQVTVSS
B2: IV144 (VHH)
VHH: QVQLQQSGGGLVQAGGSLRLSCAASGNIISFNPMGWHRQAPGKQRELVASITSGGSISYVDSVKGRFTISRDSAKNTIYLQMNSLKPEDTAVYFCAGEGPRRRGSTWYTDTYWGQGTQVTVSS
B3: LG213E6 (VHH)
VHH: EVQLVESGGGLVQAGASLRLSCAASGSTLSRYGVGWFRQAPGKERELVASVDWSGSRTYYADSVKGRFTISRDNAKNTGYLQMNSLKPDDTAVYYCAADSSVVPGIEKYDDWGLGTQVTVSS
B4: LG214E8 (VHH)
VHH: EVQLVESGGGSVQAGGSLRLSCAASGGTFNPYVMAWFRQAPGNEREFVARIRWSGGDAYYDDSVKGRFAITRDAAKNTVHLQMNSLKPEDTAVYYCAAATYGYGSYTYGGSYDLWGQGTQVTVSS
B5: LG214H10 (VHH)
VHH: EVQLVESGGGSVQAGGSLRLSCAASGGTFNPYVMAWFRQAPGNEREFVARIRWSGGDAYYDDSVKGRFAITRDAAKNTVHLQMNSLKPEDTAVYYCAAATYGYGSYTYGGSYDLWGQGTQVTVSS
B6: IV133 (VHH)
VHH: QVQLQQSGGGLVQPGGSLRLSCAASSSGFSFNPMGWYRQAPGKQRELVATMTSGGTTNYADSVKGRFTISRDNAKTTVYLQMNSLKPEDTAVYYCNARGPRRATTGWITDDYWGQGTQVTVSS
B7: IV157 (VHH)
VHH: QVQLQQSGGGLVQPGGSLRLSCAASRSDISFNPMGWYRQAPGKQRELVATISNGGTTNYADSVKGRFTISQDNAKTTVYLQMNSLKPEDTAVYYCNGRGPRYATTGWYTDDYWGQGTQVTVSS
B8: IV156 (VHH)
VHH: QVQLQQSGGGLVQPGGSLRLSCAASRSGFSFNPMGWYRQAPGKQRELVATITSGGTTNYADSVKGRFTISTDNAKTTVFLQMNSLKPEDTAVYYCNGRGPRRGTAGWFTDDYWGQGTQVTVSS
B9: LG192C4 (VHH)
VHH: EVQLVESGGGLVQAGGSLRLSCEASGRTFSSYAMVGWFRQAPGKEREFVAAVTRWSGARTVYADSVKGRFTISRDNAENTVYLQMNSLKPEDTAVYTCAADSTNRNSGAVYYSWAYDYWGQGTQVTVSS
B10: LG213D6 (VHH)
VHH: EVQLVESGGGLVQPGGSLRLSCAASGFTFGDSDMSWVRQAPGEGPEWVAGINSGGGSTVYADSVKGRFTISRDNAKNMLYLQMNSLKPEDTAVYLCAQGLMAEVTAGYWGQGTQVTVSS
B11: LG213H7 (VHH)
VHH: EVQLVESGGGLVQAGGSLRLSCAASGRTLSSYRMGWFRQAPGKEREFISTISWNGRSTYYADSVKGRFIFSEDNAKNTVYLQMNSLKPEDTAVYYCAAALIGGYYSDVDAWSYWGPGTQVTVSS
B12: LG212A2 (VHH)
VHH: EVQLVESGGGLVQAGGSLRLSCAASGRTFDTYFVGWFRQAPGKERDFVAAISWSGDRTFYADSVKGRFTISRDNAKNTEYLQMNSLKPEDTAVYYCAAREYGRLYSDSEAYDYWGQGTQVTVSS
B13: LG212G2 (VHH)
VHH: EVQLVESGGGLVQPGGSLRLSCAASGFTFGSHDMSWVRQAPGKGSEWVSGIKSGGGSTLYADSVKGRFAISRDNAKNTLYLQMNSLKPEDTAVYYCATDLYGSTWYPGEDRGTQVTVSS
B14: IV131 (VHH)
VHH: QVQLQQSGGGLVQAGGSLRLSCAASGSGFSFNPMGWYRQAPGKQRELVASITSGGTTNYVDSVKGRFTISRGNAKNTVYLQMNSLKPEDTAVYYCAAEGPRRRGSTWYTDNYWGQGTQVTVSS
B15: LG213B7 (VHH)
VHH: EVQLVESGGGLVQAGGSLRLSCTVSGDTFDNSAAGWYRATSETQRELVARIRSSGSTNYADSVKGRFTVSRDNAKNTVYLQMNSLKPEDTAVYYCNVVSYGEYFWGKGTLVTVSS
B16: LG213D7 (VHH)
VHH: EVQLVESGGGLVQAGGSLRLSCTVSGDTFDNSAAGWYRATSETQRELVARIRSSGSTNYADSVKGRFTVSRDNAKNTVYLQMNSLKPEDTAVYYCNVVSYGEYFWGKGTLVTVSS
B17: LG191E4 (VHH)
VHH: EVQLVESGGGLVQAGGSLRLSCAASGPTFSADTMGWFRQAPGKEREFVATIPWSGGIAYYSDSVKGRFTMSRDNAKNTVDLQMNSLKPEDTALYYCAGSSRIYIYSDSLSERSYDYWGQGTQVTVSS

What was measured:
[1] = target: Rabies virus glycoprotein G, Challenge Virus Standard (CVS)-11 strain (Rabies virus, strain CVS-11 (genotype 1 Lyssavirus)) (UniProt O92284); assay: cell-based or functional assay
[2] = target: Rabies virus glycoprotein G, ERA strain (attenuated vaccine strain, ATCC VR332) (Rabies virus, ERA strain (genotype 1 lyssavirus)) (UniProt P03524); assay: cell-based or functional assay
[3] = target: recombinant his6-tagged haemagglutinin HA1, Abcam ab53875; assay: ELISA on recombinant haemagglutinin, detection with rabbit anti-NANOBODY serum
[4] = target: recombinant his-tagged HA0 trimer from H5N1 strain A/Anhui/1/2005 (Abcam, Cat. No. ab53938) (influenza A virus A/Anhui/1/2005 (H5N1)); assay: as above
[5] = target: Rabies virus glycoprotein G, strain CVS-11 (ATCC VR 959) (Rabies virus, strain CVS-11 (genotype 1)); assay: cell-based or functional assay

Row | Binder | CVS-11 neutralizing antibody titer (RFFIT), IU/mg [1] | CVS-11 neutralizing antibody titer (RFFIT), IU/ml [1] | CVS-11 neutralizing antibody titer (RFFIT), IU/µM [1] | CVS-11 neutralizing antibody titer (RFFIT), nM IC50 [1] | ERA neutralizing antibody titer (RFFIT): EU/mg [2] | ERA neutralizing antibody titer (RFFIT): EU/ml [2] | ERA neutralizing antibody titer (RFFIT): EU/µM [2] | ERA neutralizing antibody titer (RFFIT): nM IC50 [2] | ELISA titer (NANOBODY concentration giving extinction 1) [3] | ELISA titer (NANOBODY concentration giving extinction 1) [4] | CVS neutralizing antibody titer: IU/mg [5] | CVS neutralizing antibody titer: IU/ml [5] | CVS neutralizing antibody titer: IU/µM [5] | CVS neutralizing antibody titer: nM IC50 [5]
1 | B1 | 3.66 IU/mg | 2.6 IU/ml | 0.05 IU/µM | 634 nM | 2.59 EU/mg | 1.84 EU/ml | 0.04 EU/µM | 865 nM |  |  |  |  |  | 
2 | B2 |  |  |  |  |  |  |  |  | 34.8 ng/mL | 33.1 ng/mL |  |  |  | 
3 | B3 | 170 IU/mg | 112 IU/ml | 2.54 IU/µM | 13.7 nM | 155 EU/mg | 288 EU/ml | 2.31 EU/µM | 14.4 nM |  |  | 65.8 IU/mg and 83.8 IU/mg and 98.3 IU/mg | 98.6 IU/ml and 156 IU/ml and 183 IU/ml | 0.98 IU/µM and 1.25 IU/µM and 1.47 IU/µM | 33.6 nM and 23.7 nM and 20.2 nM
4 | B4 | 9.37 IU/mg | 4.87 IU/ml | 0.14 IU/µM | 249 nM | < 0.96 EU/mg | < 0.5 EU/ml | < 0.02 EU/µM | > 3870 nM |  |  | 14.2 IU/mg and 10.1 IU/mg and 6.12 IU/mg | 7.38 IU/ml and 5.26 IU/ml and 3.18 IU/ml | 0.21 IU/µM and 0.15 IU/µM and 0.09 IU/µM | 124 nM and 196 nM and 323 nM
5 | B5 | 8.17 IU/mg | 11.4 IU/ml | 0.12 IU/µM | 284 nM |  |  |  |  |  |  | 17.8 IU/mg | 25 IU/ml | 0.27 IU/µM | 111 nM
6 | B6 |  |  |  |  |  |  |  |  | 32.5 ng/mL | 39.1 ng/mL |  |  |  | 
7 | B7 |  |  |  |  |  |  |  |  | 9.9 ng/mL | 30.6 ng/mL |  |  |  | 
8 | B8 |  |  |  |  |  |  |  |  | 33 ng/mL | 51.9 ng/mL |  |  |  | 
9 | B9 | < 0.63 IU/mg | < 0.5 IU/ml | < 0.01 IU/µM | > 5880 nM | < 0.63 EU/mg | < 0.5 EU/ml | < 0.01 EU/µM | > 5880 nM |  |  |  |  |  | 
10 | B10 | < 0.48 IU/mg | < 0.5 IU/ml | < 0.01 IU/µM | > 7820 nM | < 0.48 EU/mg | < 0.5 EU/ml | < 0.01 EU/µM | > 7820 nM |  |  |  |  |  | 
11 | B11 | 12.2 IU/mg | 1.71 IU/ml | 0.18 IU/µM | 191 nM | 87.4 EU/mg | 12.2 EU/ml | 1.3 EU/µM | 25.6 nM |  |  | 30.1 IU/mg and 12.6 IU/mg | 4.22 IU/ml and 1.76 IU/ml | 0.45 IU/µM and 0.19 IU/µM | 62.5 nM and 156 nM
12 | B12 | 1.72 IU/mg | 1.62 IU/ml | 0.03 IU/µM | 1340 nM | 0.55 EU/mg | 0.52 EU/ml | 0.01 EU/µM | 3940 nM |  |  |  |  |  | 
13 | B13 | 9.31 IU/mg | 9.12 IU/ml | 0.14 IU/µM | 250 nM | < 0.51 EU/mg | < 0.5 EU/ml | < 0.01 EU/µM | > 7300 nM |  |  |  |  |  | 
14 | B14 |  |  |  |  |  |  |  |  | 32 ng/mL | 36.8 ng/mL |  |  |  | 
15 | B15 | 7.38 IU/mg | 4.87 IU/ml | 0.11 IU/µM | 316 nM | 8.35 EU/mg | 5.51 EU/ml | 0.12 EU/µM | 268 nM |  |  |  |  |  | 
16 | B16 | 7.61 IU/mg | 5.1 IU/ml | 0.11 IU/µM | 305 nM | 8.91 EU/mg | 5.97 EU/ml | 0.13 EU/µM | 251 nM |  |  |  |  |  | 
17 | B17 | < 0.63 IU/mg | < 0.5 IU/ml | < 0.01 IU/µM | > 5960 nM | < 0.63 EU/mg | < 0.5 EU/ml | < 0.01 EU/µM | > 5960 nM |  |  |  |  |  | 
